In US20210054355A1 (NEW YORK UNIVERSITY, published 2021):

T1: FGF23 C-terminal tail peptide (FGF23^C-tail) (human)
T1 construct: The peptide may have been shorter, e.g. S180 to S205
T1 peptide: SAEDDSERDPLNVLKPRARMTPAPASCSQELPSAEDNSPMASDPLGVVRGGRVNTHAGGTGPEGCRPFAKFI

B1: Soluble human α-Klotho ectodomain (αKlotho^ecto) (receptor)
chain: EPGDGAQTWARVSRPPAPEAAGLFQGTFPDGFLWAVGSAAYQTEGGWQQHGKGASIWDTFTHHPLAPPGDSRNASLPLGAPSPLQPATGDVASDSYNNVFRDTEALRELGVTHYRFSISWARVLPNGSAGVPNREGLRYYRRLLERLRELGVQPVVTLYHWDLPQRLQDAYGGWANRALADHFRDYAELCFRHFGGQVKYWITIDNPYVVAWHGYATGRLAPGIRGSPRLGYLVAHNLLLAHAKVWHLYNTSFRPTQGGQVSIALSSHWINPRRMTDHSIKECQKSLDFVLGWFAKPVFIDGDYPESMKNNLSSILPDFTESEKKFIKGTADFFALCFGPTLSFQLLDPHMKFRQLESPNLRQLLSWIDLEFNHPQIFIVENGWFVSGTTKRDDAKYMYYLKKFIMETLKAIKLDGVDVIGYTAWSLMDGFEWHRGYSIRRGLFYVDFLSQDKMLLPKSSALFYQKLIEKNGFPPLPENQPLEGTFPCDFAWGVVDNYIQVDTTLSQFTDLNVYLWDVHHSKRLIKVDGVVTKKRKSYCVDFAAIQPQIALLQEMHVTHFRFSLDWALILPLGNQSQVNHTILQYYRCMASELVRVNITPVVALWQPMAPNQGLPRLLARQGAWENPYTALAFAEYARLCFQELGHHVKLWITMNEPYTRNMTYSAGHNLLKAHALAWHVYNEKFRHAQNGKISIALQADWIEPACPFSQKDKEVAERVLEFDIGWLAEPIFGSGDYPWVMRDWLNQRNNFLLPYFTEDEKKLIQGTFDFLALSHYTTILVDSEKEDPIKYNDYLEVQEMTDITWLNSPSQVAVVPWGLRKVLNWLKFKYGDLPMYIISNGIDDGLHAEDDQLRVYYMQNYINEALKAHILDGINLCGYFAYSFNDRTAPRFGLYRYAADQFEPKASMKHYRKIIDSNGFPGPETLERFCPEEFTVCTECSFFHTRKS
notes: also called wild-type αKlotho^ecto; soluble αKlotho
B2: FGFR1c^ecto/ΔHBS (FGFR1c^ecto carrying K160Q/K163Q) (receptor)
chain: DNTKPNRMPVAPYWTSPEQMEQKLHAVPAAKTVKFKCPSSGTPNPTLRWLKNGKEFKPDHRIGGYKVRYATWSIIMDSVVPSDKGNYTCIVENEYGSINHTYQLDVVERSPHRPILQAGLPANKTVALGSNVEFMCKVYSDPQPHIQWLKHIEVNGSKIGPDNLPYVQILKTAGVNTTDKEMEVLHLRNVSFEDAGEYTCLAGNSIGLSHHSAWLTVLEALEER
notes: also called FGFR1c^ΔHBS
B3: FGFR1c^ecto/ΔHBS′ (FGFR1c^ecto carrying K207Q/R209Q) (receptor)
chain: DNTKPNRMPVAPYWTSPEKMEKKLHAVPAAKTVKFKCPSSGTPNPTLRWLKNGKEFKPDHRIGGYQVQYATWSIIMDSVVPSDKGNYTCIVENEYGSINHTYQLDVVERSPHRPILQAGLPANKTVALGSNVEFMCKVYSDPQPHIQWLKHIEVNGSKIGPDNLPYVQILKTAGVNTTDKEMEVLHLRNVSFEDAGEYTCLAGNSIGLSHHSAWLTVLEALEER
notes: also called FGFR1c^ΔHBS′

Legend:
[1] = biological target: T1, FGF23 C-terminal tail peptide …; test: fluorescence dye-based thermal shift assay (SYPRO Orange), 1:1 mixture; over the peak of αKlotho^ecto alone the sheet prints 48 [left]
Description: Fluorescence Dye-Based Thermal Shift Assay: SYPRO Orange dye (#S6650, ThermoFisher Scientific, USA) was used as the fluorescent probe. 15 μl of 20 μM solutions of protein samples (wild-type and mutated forms of FGF23; αKlotho^ecto or αKlotho^{ecto/ΔRBA} alone; 1:1 mixtures of αKlotho^ecto or αKlotho^{ecto/ΔRBA} with FGF23 C-terminal tail peptide) were mixed with 5 μl of working dye solution (1:25 dilution) in duplicate in PCR strips. A temperature gradient from 4° C. to 100° C. at 1° C./minute increment was carried out with a CFX96 Touch™ Real-Time PCR Detection System (Bio-Rad, USA). Fluorescence was recorded as a function of temperature in real time. The melting temperature (Tm) was calculated with StepOne software v2.2 as the maximum of the derivative of the resulting SYPRO Orange fluorescence curves.

[2] = biological target: B1; test: SEC-MALS, 1:1:1 mixture with FGFR1c^ecto and αKlotho^ecto
Description: (§1) A Superdex 200 10/300 GL column (GE Healthcare, USA) was placed in-line between the HPLC pump (Waters 1525) and the HPLC UV (Waters 2998 Photodiode Array), laser light scattering, and refractive index detectors. Light scattering and refractive index detectors were calibrated following the manufacturer's guidelines. The refractive index increment (dn/dc) in which n is the refractive index and c is the concentration of the mixture of DDM and CHS in 20 mM Tris-HCl pH 8.0 buffer containing 300 mM NaCl, was determined offline using an Optilab T-rEX refractive index detector. Monomeric bovine serum albumin (#23210, Thermo Scientific, USA) was used as part of routine data quality control.
(§2) 60 ml or more of 25 mM HEPES pH 7.5 buffer containing 150 mM NaCl were passed through the system at a flow rate of 0.5 mL/min to equilibrate the Superdex 200 10/300 GL column and establish stable baselines for light scattering and refractive index detectors. Purified αKlotho^ecto, FGER1c^ecto (wild type or mutant), and FGF23 (wild type or mutant) proteins were mixed at a molar ratio of 1:1:1 and concentrated to 12.5 μM. 50 μl of protein samples with a molar equivalent of a heparin hexasaccharide (#H006, Iduron, Manchester, U.K.) were injected onto the gel filtration column, and the column eluent was continuously monitored for 280 nm absorbance, laser light scattering, and refractive index. […]

[3] = biological target: B2; test: SEC-MALS of the 1:1:1 mixture with αKlotho^ecto and heparin hexasaccharide; the two proteins are seen together in the ternary complex [panel B]
Description: as §1, §2

[4] = biological target: B3; test: as above
Description: as §1, §2

[5] = biological target: B1; test: SEC-MALS, 1:1:1 mixture with FGF23 and αKlotho^ecto
Description: as §1
60 ml or more of 25 mM HEPES pH 7.5 buffer containing 150 mM NaCl were passed through the system at a flow rate of 0.5 mL/min to equilibrate the Superdex 200 10/300 GL column and establish stable baselines for light scattering and refractive index detectors. Purified αKlotho^ecto, FGER1c^ecto (wild type or mutant), and FGF23 (wild type or mutant) proteins were mixed at a molar ratio of 1:1:1 and concentrated to 12.5 μM. 50 μl of protein samples with a molar equivalent of a heparin hexasaccharide (#H006, Iduron, Manchester, U.K.) were injected onto the gel filtration column, and the column eluent was continuously monitored for 280 nm absorbance, laser light scattering, and refractive index. In a separate set of experiments, 50 μl of 1:1:1 FGF23-FGFR1c^ecto-αKlotho^ecto ternary complex at 12.5 μM concentration was mixed with heparin hexasaccharide at molar ratios of 1:0.25, 1:0.5, 1:1, or 1:2, and the mixtures were injected onto the gel filtration column. 50 μl of ternary complex without added heparin hexasaccharide were run as a control. In yet another set of experiments, αKlotho^ecto (wild type or mutant) and FGER1c^ecto were mixed at a molar ratio of 1:1, and 50 μl of concentrated protein mixtures were injected onto the gel filtration column. 50 μl of concentrated αKlotho^ecto (wild type or mutant) alone were run as a control in these experiments. The analyses were performed at ambient temperature. Data were collected every second at a flow rate of 0.5 ml/min.

binding result [5] | Binder | also measured
 | B1 | melting temperature (peak of derivative fluorescence) of the mixture [1]: 54 °C
 | FGF23^ΔHBS (FGF23^WT carrying R140A/R143A) (ligand) YPNASPLLGSSWGGLIHLYTATARNSYHLQIHKNGHVDGAPHQTIYSALMIRSEDAGFVVITGVMSRRYLCMDFRGNIFGSHYFDPENCRFQHQTLENGYDVYHSPQYHFLVSLGAAKAAFLPGMNPPPYSQFLSRRNEIPLIHFNTPIPRQHTQSAEDDSERDPLNVLKPRARMTPAPAS | binding result [2]: binds; binding result [3]: binds; binding result [4]: binds
binds | B2 | 
binds | FGFR1c^ecto/ΔSLBS (FGFR1c^ecto carrying I203E) (receptor, also called FGFR1c^ΔSLBS) DNTKPNRMPVAPYWTSPEKMEKKLHAVPAAKTVKFKCPSSGTPNPTLRWLKNGKEFKPDHREGGYKVRYATWSIIMDSVVPSDKGNYTCIVENEYGSINHTYQLDVVERSPHRPILQAGLPANKTVALGSNVEFMCKVYSDPQPHIQWLKHIEVNGSKIGPDNLPYVQILKTAGVNTTDKEMEVLHLRNVSFEDAGEYTCLAGNSIGLSHHSAWLTVLEALEER | 
binds | FGFR1c^ecto/ΔSLBS′ (FGFR1c^ecto carrying V221D) (receptor, also called FGFR1c^ΔSLBS′) DNTKPNRMPVAPYWTSPEKMEKKLHAVPAAKTVKFKCPSSGTPNPTLRWLKNGKEFKPDHRIGGYKVRYATWSIIMDSVDPSDKGNYTCIVENEYGSINHTYQLDVVERSPHRPILQAGLPANKTVALGSNVEFMCKVYSDPQPHIQWLKHIEVNGSKIGPDNLPYVQILKTAGVNTTDKEMEVLHLRNVSFEDAGEYTCLAGNSIGLSHHSAWLTVLEALEER | 
binds | B3 | 
binds | FGFR1c^ecto/ΔRRBS (FGFR1c^ecto carrying A171D) (receptor, also called FGFR1^ΔRRBS) DNTKPNRMPVAPYWTSPEKMEKKLHAVPADKTVKFKCPSSGTPNPTLRWLKNGKEFKPDHRIGGYKVRYATWSIIMDSVVPSDKGNYTCIVENEYGSINHTYQLDVVERSPHRPILQAGLPANKTVALGSNVEFMCKVYSDPQPHIQWLKHIEVNGSKIGPDNLPYVQILKTAGVNTTDKEMEVLHLRNVSFEDAGEYTCLAGNSIGLSHHSAWLTVLEALEER | 
